# T1: Full-length human Ang-1 protein conjugated to 6x histidine tag (human, UniProt Q15389 20-498, limits assumed)
# T1 construct: Bought (R&D Systems); printed as full-length; also called hAng-1 WT; Ang-1-His; not shown: 6x histidine tag
# T1 sequence (looked up): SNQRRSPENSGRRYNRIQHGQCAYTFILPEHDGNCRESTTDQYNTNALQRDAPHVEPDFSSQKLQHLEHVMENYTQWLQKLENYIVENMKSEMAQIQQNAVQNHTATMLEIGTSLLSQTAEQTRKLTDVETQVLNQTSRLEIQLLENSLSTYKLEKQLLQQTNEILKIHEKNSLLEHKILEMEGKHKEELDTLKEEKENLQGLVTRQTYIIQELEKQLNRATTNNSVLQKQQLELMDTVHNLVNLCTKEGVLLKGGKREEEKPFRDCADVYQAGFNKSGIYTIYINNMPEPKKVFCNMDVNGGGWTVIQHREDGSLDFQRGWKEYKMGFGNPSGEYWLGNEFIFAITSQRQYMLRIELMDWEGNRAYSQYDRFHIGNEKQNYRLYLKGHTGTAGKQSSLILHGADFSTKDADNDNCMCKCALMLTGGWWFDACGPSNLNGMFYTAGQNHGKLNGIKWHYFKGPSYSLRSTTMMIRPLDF
# T2: hAng-2FD-mFc I-434-M (human, UniProt O15123 282-496)
# T2 construct: not shown: mouse Fc
# T2 chain: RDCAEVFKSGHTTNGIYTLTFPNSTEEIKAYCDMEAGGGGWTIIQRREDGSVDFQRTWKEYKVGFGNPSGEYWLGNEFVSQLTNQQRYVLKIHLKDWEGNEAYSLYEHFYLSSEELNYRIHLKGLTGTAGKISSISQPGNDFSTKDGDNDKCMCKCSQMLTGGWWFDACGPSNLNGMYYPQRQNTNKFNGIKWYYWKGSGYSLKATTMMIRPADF
# T3: hAng-2FD-mFc N-467-G (human, UniProt O15123 282-496)
# T3 construct: not shown: mouse Fc
# T3 chain: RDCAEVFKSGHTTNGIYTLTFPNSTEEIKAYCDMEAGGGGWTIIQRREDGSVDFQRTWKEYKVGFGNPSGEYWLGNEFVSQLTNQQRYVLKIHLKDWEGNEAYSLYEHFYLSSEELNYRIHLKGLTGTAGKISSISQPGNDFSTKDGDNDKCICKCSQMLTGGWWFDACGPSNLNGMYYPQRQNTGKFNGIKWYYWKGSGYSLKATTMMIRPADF
# T4: hAng-2FD-mFc Y-475-H (human, UniProt O15123 282-496)
# T4 construct: not shown: mouse Fc
# T4 chain: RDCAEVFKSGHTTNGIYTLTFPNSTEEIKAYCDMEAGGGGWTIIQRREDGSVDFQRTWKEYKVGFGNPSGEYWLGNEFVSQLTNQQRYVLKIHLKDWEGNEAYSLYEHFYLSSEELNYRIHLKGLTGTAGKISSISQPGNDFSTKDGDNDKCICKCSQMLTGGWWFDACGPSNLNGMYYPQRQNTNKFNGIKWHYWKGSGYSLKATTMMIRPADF
# T5: hAng-2FD-mFc K-432-N (human, UniProt O15123 282-496)
# T5 construct: not shown: mouse Fc
# T5 chain: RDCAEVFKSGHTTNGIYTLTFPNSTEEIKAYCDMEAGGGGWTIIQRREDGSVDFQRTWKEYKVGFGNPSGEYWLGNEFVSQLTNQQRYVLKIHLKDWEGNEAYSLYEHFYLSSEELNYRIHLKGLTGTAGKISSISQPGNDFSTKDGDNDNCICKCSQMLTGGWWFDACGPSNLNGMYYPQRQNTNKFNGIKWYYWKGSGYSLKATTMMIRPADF
# B1: H1H744N (antibody, V domains shown)
# VH: QVQLVQSGVEVKKPGASVKVSCKTSGYTFSNNGFSWVRQAPGQGLEWLGWISGYNGNTNYAQKFQGRVTMTTDTSTSTAYMELRTLRSDDTAVYYCARDQDYSNFHWLDPWGQGTLVTVAS
# VL: DIQMTQSPSSVSASVGDRVIITCRASQGLSSWLAWYQQKPGTAPKLLIHSASSLQTGVPSRFSGSGSGTEFALTINSLQPEDFGTYYCQQANSFPLTFGGGTRVEIK
# How the values were obtained:
# Biotin-hBA2 = molecular target: T6, Biotin-hBA2 (human, biotinylated (sites not given)); experiment: blocking ELISA, biotin-hBA2 to hTie-2
# T6 construct: hBA2 consists of two dimers; also called biotinylated hBA2; human bow-Ang2
# T6 sequence (chain, as listed by the source limits assumed): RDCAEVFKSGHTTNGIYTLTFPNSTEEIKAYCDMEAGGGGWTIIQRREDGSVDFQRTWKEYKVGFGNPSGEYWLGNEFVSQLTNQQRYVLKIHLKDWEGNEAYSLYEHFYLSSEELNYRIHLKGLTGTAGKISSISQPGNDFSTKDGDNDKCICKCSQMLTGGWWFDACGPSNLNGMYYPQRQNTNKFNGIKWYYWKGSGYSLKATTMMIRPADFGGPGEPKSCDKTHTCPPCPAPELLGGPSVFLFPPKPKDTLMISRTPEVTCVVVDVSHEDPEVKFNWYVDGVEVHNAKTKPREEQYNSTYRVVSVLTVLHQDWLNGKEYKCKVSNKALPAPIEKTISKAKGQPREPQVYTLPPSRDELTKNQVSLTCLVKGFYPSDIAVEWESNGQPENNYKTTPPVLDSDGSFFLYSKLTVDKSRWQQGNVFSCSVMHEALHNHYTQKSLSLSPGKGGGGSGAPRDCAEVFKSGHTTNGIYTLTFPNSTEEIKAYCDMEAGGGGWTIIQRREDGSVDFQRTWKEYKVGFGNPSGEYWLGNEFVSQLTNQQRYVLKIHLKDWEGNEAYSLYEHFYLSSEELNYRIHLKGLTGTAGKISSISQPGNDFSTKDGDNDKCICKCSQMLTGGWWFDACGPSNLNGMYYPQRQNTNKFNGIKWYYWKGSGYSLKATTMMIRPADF
# [1] = molecular target: T1, Full-length human Ang-1 protein …; experiment: blocking ELISA, 0.6 nM hAng-1-His to coated hTie-2-mFc
# Protocol: Briefly, hTie-2-mFc (a chimeric construct consisting of human Tie-2 conjugated to mouse IgG; SEQ ID NO:525) was coated onto 96-well plates at a concentration of 2 μg/ml and incubated overnight followed by washing four times in wash buffer (PBS with 0.05% Tween-20). The plate was then blocked with PBS (Irvine Scientific, Santa Ana, Calif.) containing 0.5% BSA (Sigma-Aldrich Corp., St. Louis, Mo.) for one hour at room temperature. […] The antibody/antigen mixture was then added to the plate containing hTie-2-mFc and incubated for one hour at room temperature. […] Absorbance was read at OD₄₅₀ for 0.1 sec.
# Monkey Ang-2FD-hFc = molecular target: T7, Monkey Ang-2FD-hFc (monkey (Macca fascicularis)); experiment: blocking ELISA, 16.67 nM antibody, Ang-2FD-hFc to coated hTie-2-mFc
# T7 construct: also called dimeric monkey Ang-2FD
# T7 sequence (chain, as listed by the source limits assumed): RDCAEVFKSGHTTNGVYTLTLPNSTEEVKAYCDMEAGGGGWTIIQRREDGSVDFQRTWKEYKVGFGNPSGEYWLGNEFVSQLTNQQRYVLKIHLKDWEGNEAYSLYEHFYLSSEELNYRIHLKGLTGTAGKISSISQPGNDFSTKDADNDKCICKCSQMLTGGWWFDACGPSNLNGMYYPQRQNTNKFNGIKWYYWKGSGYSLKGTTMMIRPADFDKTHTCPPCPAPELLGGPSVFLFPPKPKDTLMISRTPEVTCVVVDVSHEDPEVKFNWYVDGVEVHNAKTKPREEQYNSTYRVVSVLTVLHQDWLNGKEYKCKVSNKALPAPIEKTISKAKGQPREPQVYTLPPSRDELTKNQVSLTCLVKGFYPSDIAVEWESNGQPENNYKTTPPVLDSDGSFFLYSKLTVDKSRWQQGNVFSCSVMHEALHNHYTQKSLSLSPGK
# Human Ang-2FD-hFc = molecular target: T8, Human Ang-2FD-hFc (human); experiment: as above
# T8 construct: also called dimeric human Ang-2FD; human Ang-2FD protein conjugated to human IgG
# T8 sequence (chain, as listed by the source limits assumed): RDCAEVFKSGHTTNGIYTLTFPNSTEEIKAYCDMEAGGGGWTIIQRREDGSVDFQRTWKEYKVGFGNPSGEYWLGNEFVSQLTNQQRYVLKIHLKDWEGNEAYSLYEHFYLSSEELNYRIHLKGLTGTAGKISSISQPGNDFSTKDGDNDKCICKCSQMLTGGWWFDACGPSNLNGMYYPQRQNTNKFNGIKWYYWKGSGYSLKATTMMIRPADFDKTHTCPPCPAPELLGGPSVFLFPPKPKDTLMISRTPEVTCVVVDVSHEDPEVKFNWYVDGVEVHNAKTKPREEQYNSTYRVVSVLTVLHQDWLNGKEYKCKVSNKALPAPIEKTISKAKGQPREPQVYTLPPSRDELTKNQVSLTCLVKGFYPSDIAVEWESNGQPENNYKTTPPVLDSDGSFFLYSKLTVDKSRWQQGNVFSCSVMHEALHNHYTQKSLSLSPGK
# hAng-2FD-mFc I-434-M = molecular target: T2, hAng-2FD-mFc I-434-M; experiment: SPR 25C, hAng-2FD-mFc captured on anti-mFc, 100 nM analyte
# hAng-2FD-mFc N-467-G = molecular target: T3, hAng-2FD-mFc N-467-G; experiment: as above
# hAng-2FD-mFc Y-475-H = molecular target: T4, hAng-2FD-mFc Y-475-H; experiment: as above
# hAng-2FD-mFc K-432-N = molecular target: T5, hAng-2FD-mFc K-432-N; experiment: as above
binder,measurement,setting,value
B1,IC50,Biotin-hBA2,25 pM
same,IC50,[1],187000 pM
same,Percent Blocking of Ang-2FD Binding to Tie-2,Monkey Ang-2FD-hFc,96.2%
same,Percent Blocking of Ang-2FD Binding to Tie-2,Human Ang-2FD-hFc,97.9%
same,Kd,hAng-2FD-mFc I-434-M,31.8 pM
same,RU,hAng-2FD-mFc I-434-M,213 RU
same,T ½,hAng-2FD-mFc I-434-M,43.1 h
same,Kd,hAng-2FD-mFc N-467-G,77.2 pM
same,RU,hAng-2FD-mFc N-467-G,139 RU
same,T ½,hAng-2FD-mFc N-467-G,16.9 h
same,Kd,hAng-2FD-mFc Y-475-H,306 pM
same,RU,hAng-2FD-mFc Y-475-H,247 RU
same,T ½,hAng-2FD-mFc Y-475-H,2.27 h
same,Kd,hAng-2FD-mFc K-432-N,48.7 pM
same,RU,hAng-2FD-mFc K-432-N,137 RU
same,T ½,hAng-2FD-mFc K-432-N,28.2 h

# Reference: US20140112930A1 (published 2014)
